For this assay, the target named is SARS-CoV-2 RBD (SARS-CoV-2 (P0DTC2 reference)); strain …, UniProt P0DTC2, biotin (site-specific, BirA, on the AviTag)). Nature of the assay: BLI.

B1: IgG 15036 (antibody, V domains shown)
VH: EVQLVESGGGLVQPGGSLRLSCAASGFDFTAYDIHWVRQAPGKGLEWVAGISASGGYTAYADSVKGRFTISADTSKNTAYLQMNSLRAEDTAVYYCARDGFHSYALDYWGQGTLVTVSS
VL: DIQMTQSPSSLSASVGDRVTITCRASQSVSSAVAWYQQKPGKAPKLLIYSASSLYSGVPSRFSGSRSGTDFTLTISSLQPEDFATYYCQQWYSLFTFGQGTKVEIK
Broadly, the Kd is the equilibrium constant for the complex coming apart. A lower Kd goes with higher affinity. Molecule B1 registered a dissociation constant Kd of 2.2 ± 0.2 nM.

B2: IgG 15046 (antibody, V domains shown)
VH: EVQLVESGGGLVQPGGSLRLSCAASGFDFGSYAMHWVRQAPGKGLEWVAGIYASGGYTDYADSVKGRFTISADTSKNTAYLQMNSLRAEDTAVYYCARGWSYYWGFDYWGQGTLVTVSS
VL: DIQMTQSPSSLSASVGDRVTITCRASQSVSSAVAWYQQKPGKAPKLLIYSASSLYSGVPSRFSGSRSGTDFTLTISSLQPEDFATYYCQQYDYGLFTFGQGTKVEIK
Molecule B2 came in with a dissociation constant Kd of 3.7 ± 0.1 nM.
